According to patent US20200115416A1 (REGENTS OF THE UNIVERSITY OF MINNESOTA, published 2020):
Read-outs that look alike come from different tables or passages of the source. Values belong to the binder of their own block, whether it stands above or below them. Square brackets hold non-standard residues; d marks the D form. hPhe = N[C@@H](CCc1ccccc1)C(=O)O; Nle = CCCC[C@H](N)C(=O)O; Dap = NC[C@H](N)C(=O)O

Key:
Experiment in all cases: cell-based or functional assay
[1] = target: T1, mouse melanocortin-5 receptor (mouse, UniProt P41149 1-325)
T1 sequence (P41149 whole entry): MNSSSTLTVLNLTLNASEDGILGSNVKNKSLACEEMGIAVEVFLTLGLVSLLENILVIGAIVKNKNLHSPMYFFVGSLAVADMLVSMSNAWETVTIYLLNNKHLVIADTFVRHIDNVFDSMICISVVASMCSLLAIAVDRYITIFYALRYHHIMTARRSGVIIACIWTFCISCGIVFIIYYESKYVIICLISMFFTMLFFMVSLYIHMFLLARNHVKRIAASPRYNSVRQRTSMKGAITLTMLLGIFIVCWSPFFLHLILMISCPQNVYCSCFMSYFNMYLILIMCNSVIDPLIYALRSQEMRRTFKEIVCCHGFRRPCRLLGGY

[2] = target: T2, mouse melanocortin-1 receptor (mouse, UniProt Q01727 1-315)
T2 sequence (Q01727 whole entry): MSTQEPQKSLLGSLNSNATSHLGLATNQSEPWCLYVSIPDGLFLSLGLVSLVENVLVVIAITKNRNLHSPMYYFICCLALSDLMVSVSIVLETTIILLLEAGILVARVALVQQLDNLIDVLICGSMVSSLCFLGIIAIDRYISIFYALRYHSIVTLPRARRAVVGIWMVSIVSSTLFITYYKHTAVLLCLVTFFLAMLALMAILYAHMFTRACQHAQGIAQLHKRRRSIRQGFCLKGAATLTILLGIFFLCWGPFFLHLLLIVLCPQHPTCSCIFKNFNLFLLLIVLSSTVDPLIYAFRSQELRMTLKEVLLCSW

[3] = target: T3, mouse melanocortin-3 receptor (mouse, UniProt P33033 1-323)
T3 sequence (P33033 whole entry): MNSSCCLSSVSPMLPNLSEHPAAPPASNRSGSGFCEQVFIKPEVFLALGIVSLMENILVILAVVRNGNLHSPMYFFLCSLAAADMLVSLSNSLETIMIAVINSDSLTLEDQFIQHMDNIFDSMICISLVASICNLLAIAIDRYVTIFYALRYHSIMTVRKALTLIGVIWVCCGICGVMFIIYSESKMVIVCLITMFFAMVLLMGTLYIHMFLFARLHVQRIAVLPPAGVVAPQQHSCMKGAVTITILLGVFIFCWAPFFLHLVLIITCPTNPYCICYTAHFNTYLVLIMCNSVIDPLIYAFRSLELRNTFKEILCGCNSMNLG

[4] = target: T4, mouse melanocortin-4 receptor (mouse, UniProt P56450 1-332)
T4 sequence (P56450 whole entry): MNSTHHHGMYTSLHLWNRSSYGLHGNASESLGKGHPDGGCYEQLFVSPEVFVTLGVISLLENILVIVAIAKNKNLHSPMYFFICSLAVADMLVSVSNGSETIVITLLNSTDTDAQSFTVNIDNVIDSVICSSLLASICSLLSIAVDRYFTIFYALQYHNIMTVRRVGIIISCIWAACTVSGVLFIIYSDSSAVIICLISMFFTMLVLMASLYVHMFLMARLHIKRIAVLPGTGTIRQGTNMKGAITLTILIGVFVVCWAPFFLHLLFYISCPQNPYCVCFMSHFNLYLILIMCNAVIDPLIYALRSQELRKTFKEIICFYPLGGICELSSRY

[5] = target: T1, mouse melanocortin-5 receptor; remark: listed apart in the source
[6] = target: T3, mouse melanocortin-3 receptor; remark: listed apart in the source
[7] = target: T2, mouse melanocortin-1 receptor; remark: listed apart in the source
[8] = target: T1, mouse melanocortin-5 receptor; remark: listed apart in the source
[9] = target: T2, mouse melanocortin-1 receptor; remark: listed apart in the source
[10] = target: T1, mouse melanocortin-5 receptor; remark: listed apart in the source
[11] = target: T3, mouse melanocortin-3 receptor; remark: listed apart in the source
[12] = target: T4, mouse melanocortin-4 receptor; remark: listed apart in the source
[13] = target: T2, mouse melanocortin-1 receptor; remark: listed apart in the source
[14] = target: human melanocortin-4 receptor (human, UniProt P32245 1-332)
human melanocortin-4 receptor, sequence (P32245 whole entry): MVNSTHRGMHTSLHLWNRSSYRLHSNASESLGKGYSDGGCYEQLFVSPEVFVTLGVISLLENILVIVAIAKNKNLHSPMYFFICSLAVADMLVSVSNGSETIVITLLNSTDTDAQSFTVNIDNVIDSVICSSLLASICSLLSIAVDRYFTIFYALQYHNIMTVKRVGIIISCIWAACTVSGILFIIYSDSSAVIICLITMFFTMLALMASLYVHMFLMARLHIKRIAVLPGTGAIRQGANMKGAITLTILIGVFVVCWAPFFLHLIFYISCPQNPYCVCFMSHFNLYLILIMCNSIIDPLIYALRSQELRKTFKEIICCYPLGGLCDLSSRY

EC50 (cAMP AlphaScreen, inverse agonist) [1]: > 100000 nM
agonist EC50 (cAMP AlphaScreen) [2]: > 100000 nM
antagonist pA2 (Schild, agonist NDP-MSH) [3]: 6.7
antagonist pA2 (Schild, agonist NDP-MSH) [4]: 9.5
B1: c[Pro-Arg-Phe-hPhe-Dap-Ser-Nle-DPro] (peptide)
peptide: cyclo(PRF[hPhe][Dap]S[Nle][dP])
SMILES: CCCC[C@@H]1NC(=O)[C@H](CO)NC(=O)[C@H](CN)NC(=O)[C@H](CCc2ccccc2)NC(=O)[C@H](Cc2ccccc2)NC(=O)[C@H](CCCNC(=N)N)NC(=O)[C@@H]2CCCN2C(=O)[C@H]2CCCN2C1=O

EC50 (cAMP AlphaScreen, inverse agonist) [1]: > 100000 nM
agonist EC50 (cAMP AlphaScreen) [2]: > 100000 nM
antagonist pA2 (Schild, agonist NDP-MSH) [3]: 7.5
antagonist pA2 (Schild, agonist NDP-MSH) [4]: 8.8
B2: c[Pro-Arg-Phe-hPhe-Arg-Ala-Nle-DPro] (peptide)
peptide: cyclo(PRF[hPhe]RA[Nle][dP])
SMILES: CCCC[C@@H]1NC(=O)[C@H](C)NC(=O)[C@H](CCCNC(=N)N)NC(=O)[C@H](CCc2ccccc2)NC(=O)[C@H](Cc2ccccc2)NC(=O)[C@H](CCCNC(=N)N)NC(=O)[C@@H]2CCCN2C(=O)[C@H]2CCCN2C1=O

inverse agonist, % change from basal cAMP at 100 µM [5]: -30%
agonist EC50 (cAMP AlphaScreen) [6]: > 100000 nM
antagonist pA2 (Schild, agonist NDP-MSH) [6]: 6
agonist EC50 (cAMP AlphaScreen) [7]: 800 nM
partial agonist efficacy, % of NDP-MSH [7]: 70%
Binder: PRFFXAFP (head-to-tail cyclic; DArg at 2; DPhe at 3; Dap at 5; DPro at 8) [c[Pro-DArg-DPhe-Phe-Dap-Ala-Phe-DPro]]

partial agonist, % receptor stimulation [2]: 50%
inverse agonist, % change from basal cAMP at 100 µM [8]: -35%
Binder: cyclo(PRFFNA[Nle][dP]) [c[Pro-Arg-Phe-Phe-Asn-Ala-Nle-DPro]]

EC50 (cAMP AlphaScreen, inverse agonist) [1]: > 100000 nM
agonist EC50 (cAMP AlphaScreen) [2]: 400 nM
antagonist pA2 (Schild, agonist NDP-MSH) [3]: 7.9
antagonist pA2 (Schild, agonist NDP-MSH) [4]: 9.5
B3: c[Pro-Arg-Phe-hPhe-Arg-Ser-Nle-DPro] (peptide)
peptide: cyclo(PRF[hPhe]RS[Nle][dP])
SMILES: CCCC[C@@H]1NC(=O)[C@H](CO)NC(=O)[C@H](CCCNC(=N)N)NC(=O)[C@H](CCc2ccccc2)NC(=O)[C@H](Cc2ccccc2)NC(=O)[C@H](CCCNC(=N)N)NC(=O)[C@@H]2CCCN2C(=O)[C@H]2CCCN2C1=O

inverse agonist, % change from basal cAMP at 100 µM [5]: -15%
agonist EC50 (cAMP AlphaScreen) [6]: > 100000 nM
antagonist pA2 (Schild, agonist NDP-MSH) [6]: < 5.5
agonist EC50 (cAMP AlphaScreen) [7]: 2200 nM
partial agonist efficacy, % of NDP-MSH [7]: 60%
Binder: PRFFXAFP (head-to-tail cyclic; DArg at 2; DPhe at 3 and 4; Dap at 5; DPro at 8) [c[Pro-DArg-DPhe-DPhe-Dap-Ala-Phe-DPro]]

% maximal NDP-MSH response at 100 µM (cAMP AlphaScreen) [6]: 35%
agonist EC50 (cAMP AlphaScreen) [7]: 1200 nM
Binder: cyclo(P[dR]F[dF]NAF[dP]) [c[Pro-DArg-Phe-DPhe-Asn-Ala-Phe-DPro]]

EC50 (cAMP AlphaScreen, inverse agonist) [1]: > 100000 nM
% receptor stimulation at 100 µM (cAMP AlphaScreen) [2]: 30%
antagonist pA2 (Schild, agonist NDP-MSH) [3]: 7.7
antagonist pA2 (Schild, agonist NDP-MSH) [4]: 8.8
B4: c[Pro-Arg-Phe-hPhe-Arg-Ser-Phe-DPro] (peptide)
peptide: cyclo(PRF[hPhe]RSF[dP])
SMILES: N=C(N)NCCC[C@@H]1NC(=O)[C@H](CCc2ccccc2)NC(=O)[C@H](Cc2ccccc2)NC(=O)[C@H](CCCNC(=N)N)NC(=O)[C@@H]2CCCN2C(=O)[C@H]2CCCN2C(=O)[C@H](Cc2ccccc2)NC(=O)[C@H](CO)NC1=O

inverse agonist, % change from basal cAMP at 100 µM [8]: -25%
% activation at 100 µM (cAMP AlphaScreen) [9]: 60%
Binder: cyclo(PRFFNAG[dP]) [c[Pro-Arg-Phe-Phe-Asn-Ala-Gly-DPro]]

agonist EC50 (cAMP AlphaScreen) [5]: > 100000 nM
agonist EC50 (cAMP AlphaScreen) [6]: > 100000 nM
antagonist pA2 (Schild, agonist NDP-MSH) [6]: < 5.5
agonist EC50 (cAMP AlphaScreen) [7]: 800 nM
partial agonist efficacy, % of NDP-MSH [7]: 75%
Binder: PRFFXAFP (head-to-tail cyclic; DPhe at 4; Dap at 5; DPro at 8) [c[Pro-Arg-Phe-DPhe-Dap-Ala-Phe-DPro]]

inverse agonist, % change from basal cAMP at 100 µM [5]: -20%
agonist EC50 (cAMP AlphaScreen) [6]: > 100000 nM
antagonist pA2 (Schild, agonist NDP-MSH) [6]: 5.7
agonist EC50 (cAMP AlphaScreen) [7]: 450 nM
partial agonist efficacy, % of NDP-MSH [7]: 70%
Binder: PRFFXAFP (head-to-tail cyclic; DArg at 2; DPhe at 4; Dap at 5; DPro at 8) [c[Pro-DArg-Phe-DPhe-Dap-Ala-Phe-DPro]]

inverse agonist apparent potency [8]: 150 nM
inverse agonist, % decrease from basal cAMP [8]: -20%
Binder: cyclo(PRFFNAW[dP]) [c[Pro-Arg-Phe-Phe-Asn-Ala-Trp-DPro]]

inverse agonist, % change from basal cAMP at 100 µM [10]: -30%
agonist EC50 (cAMP AlphaScreen) [11]: > 100000 nM
antagonist pA2 (Schild, agonist NDP-MSH) [11]: 6.2
agonist EC50 (cAMP AlphaScreen) [12]: > 100000 nM
antagonist pA2 (Schild, agonist NDP-MSH) [12]: 8.2
agonist EC50 (cAMP AlphaScreen) [13]: > 100000 nM
inverse agonist efficacy, % relative to basal [1]: -14%
agonist EC50 (cAMP AlphaScreen) [2]: 1200 nM
antagonist pA2 (Schild, agonist NDP-MSH) [3]: 6.1
antagonist pA2 (Schild, agonist NDP-MSH) [4]: 8.1
B5: c[Pro-Arg-Phe-Phe-Asn-Ser-Phe-DPro] (peptide)
peptide: cyclo(PRFFNSF[dP])
SMILES: N=C(N)NCCC[C@@H]1NC(=O)[C@@H]2CCCN2C(=O)[C@H]2CCCN2C(=O)[C@H](Cc2ccccc2)NC(=O)[C@H](CO)NC(=O)[C@H](CC(N)=O)NC(=O)[C@H](Cc2ccccc2)NC(=O)[C@H](Cc2ccccc2)NC1=O

inverse agonist apparent potency [8]: 780 nM
inverse agonist, % decrease from basal cAMP [8]: -20%
Binder: PRFFNAXP (head-to-tail cyclic; Cha at 7; DPro at 8) [c[Pro-Arg-Phe-Phe-Asn-Ala-Cha-DPro]]

agonist EC50 (cAMP AlphaScreen) [5]: > 100000 nM
agonist EC50 (cAMP AlphaScreen) [6]: > 100000 nM
antagonist pA2 (Schild, agonist NDP-MSH) [6]: 5.7
agonist EC50 (cAMP AlphaScreen) [7]: 700 nM
Binder: PRFFXAFP (head-to-tail cyclic; DPhe at 3 and 4; Dap at 5; DPro at 8) [c[Pro-Arg-DPhe-DPhe-Dap-Ala-Phe-DPro]]

inverse agonist apparent potency [10]: 160 nM
inverse agonist, % decrease from basal cAMP [10]: -20%
agonist EC50 (cAMP AlphaScreen) [11]: > 100000 nM
antagonist pA2 (Schild, agonist NDP-MSH) [11]: < 5.5
agonist EC50 (cAMP AlphaScreen) [13]: > 100000 nM
inverse agonist, % decrease from basal signal [14]: -15%
Binder: PRFFXAFP (head-to-tail cyclic; Abu at 5; DPro at 8) [c[Pro-Arg-Phe-Phe-Abu-Ala-Phe-DPro]]

inverse agonist apparent potency [10]: 110 nM
inverse agonist, % decrease from basal cAMP [10]: -10%
agonist EC50 (cAMP AlphaScreen) [11]: > 100000 nM
antagonist pA2 (Schild, agonist NDP-MSH) [11]: 6.7
agonist EC50 (cAMP AlphaScreen) [13]: > 100000 nM
inverse agonist, % decrease from basal signal [14]: -30%
Binder: PRFFXAFP (head-to-tail cyclic; DDap at 5; DPro at 8) [c[Pro-Arg-Phe-Phe-DDap-Ala-Phe-DPro]]

inverse agonist, % change from basal cAMP at 100 µM [8]: -35%
Binder: cyclo(PRFFNAL[dP]) [c[Pro-Arg-Phe-Phe-Asn-Ala-Leu-DPro]]

inverse agonist apparent potency [8]: 290 nM
inverse agonist, % decrease from basal cAMP [8]: -20%
Binder: cyclo(PRFFNA[hPhe][dP]) [c[Pro-Arg-Phe-Phe-Asn-Ala-hPhe-DPro]]

inverse agonist, % change from basal cAMP at 100 µM [8]: -55%
% activation at 100 µM (cAMP AlphaScreen) [9]: 35%
Binder: cyclo(PRFFNAS[dP]) [c[Pro-Arg-Phe-Phe-Asn-Ala-Ser-DPro]]

inverse agonist apparent potency [10]: 250 nM
inverse agonist, % decrease from basal cAMP [10]: -20%
agonist EC50 (cAMP AlphaScreen) [11]: > 100000 nM
antagonist pA2 (Schild, agonist NDP-MSH) [11]: < 5.5
agonist EC50 (cAMP AlphaScreen) [12]: > 100000 nM
antagonist pA2 (Schild, agonist NDP-MSH) [12]: 7.32
agonist EC50 (cAMP AlphaScreen) [13]: > 100000 nM
inverse agonist, % decrease from basal signal [14]: -35%
Binder: cyclo(PRFFAAF[dP]) [c[Pro-Arg-Phe-Phe-Ala-Ala-Phe-DPro]]

% maximal NDP-MSH response at 100 µM (cAMP AlphaScreen) [13]: 25%
agonist EC50 (cAMP AlphaScreen) [2]: 2800 nM
partial agonist, % receptor stimulation [2]: 80%
inverse agonist, % decrease from basal signal [14]: -30%
Binder: cyclo(PRFFNAF[dP]) (also: assayed as TFA salt) [c[Pro-Arg-Phe-Phe-Asn-Ala-Phe-DPro]]

inverse agonist apparent potency [10]: 140 nM
inverse agonist, % decrease from basal cAMP [10]: -25%
agonist EC50 (cAMP AlphaScreen) [11]: > 100000 nM
antagonist pA2 (Schild, agonist NDP-MSH) [11]: 5.9
agonist EC50 (cAMP AlphaScreen) [12]: > 100000 nM
antagonist pA2 (Schild, agonist NDP-MSH) [12]: 7.7
agonist EC50 (cAMP AlphaScreen) [13]: > 100000 nM
inverse agonist, % decrease from basal signal [14]: -25%
Binder: cyclo(PRFFSAF[dP]) [c[Pro-Arg-Phe-Phe-Ser-Ala-Phe-DPro]]

inverse agonist, % change from basal cAMP at 100 µM [8]: -40%
Binder: cyclo(PRFFNAY[dP]) [c[Pro-Arg-Phe-Phe-Asn-Ala-Tyr-DPro]]

EC50 (cAMP AlphaScreen, inverse agonist) [1]: > 100000 nM
% receptor stimulation at 100 µM (cAMP AlphaScreen) [2]: 25%
antagonist pA2 (Schild, agonist NDP-MSH) [3]: 8
antagonist pA2 (Schild, agonist NDP-MSH) [4]: 8.9
B6: c[Pro-Arg-Phe-hPhe-Arg-Ala-Phe-DPro] (peptide)
peptide: cyclo(PRF[hPhe]RAF[dP])
SMILES: C[C@@H]1NC(=O)[C@H](CCCNC(=N)N)NC(=O)[C@H](CCc2ccccc2)NC(=O)[C@H](Cc2ccccc2)NC(=O)[C@H](CCCNC(=N)N)NC(=O)[C@@H]2CCCN2C(=O)[C@H]2CCCN2C(=O)[C@H](Cc2ccccc2)NC1=O

inverse agonist apparent potency [10]: 60 nM
inverse agonist, % decrease from basal cAMP [10]: -15%
agonist EC50 (cAMP AlphaScreen) [11]: > 100000 nM
antagonist pA2 (Schild, agonist NDP-MSH) [11]: 6.52
% maximal NDP-MSH response at 100 µM (cAMP AlphaScreen) [13]: 30%
EC50 (cAMP AlphaScreen, inverse agonist) [1]: > 100000 nM
agonist EC50 (cAMP AlphaScreen) [2]: 1600 nM
partial agonist, % receptor stimulation [2]: 80%
inverse agonist, % decrease from basal signal [14]: -50%
Binder: PRFFXAFP (head-to-tail cyclic; Dap at 5; DPro at 8) [c[Pro-Arg-Phe-Phe-Dap-Ala-Phe-DPro]]

inverse agonist, % change from basal cAMP at 100 µM [8]: -40%
Binder: cyclo(PRFFNAK[dP]) [c[Pro-Arg-Phe-Phe-Asn-Ala-Lys-DPro]]
